Measured values reported in paper PMC4933465 (The Journal of Biological Chemistry, 2016).
Where a chain is given by its changes, count along the chain named. Names may count otherwise.

B1: CCL19 (ligand, UniProt Q99731 22-98, looked up)
chain: GTNDAEDCCLSVTQKPIPGYIVRNFHYLLIKDGCRVPAVVFTTLRGRQLCAPPDQPWVERIIQRLQRTSAKMKRRSS
notes: chemokine CCL19; source: E. coli, purified
B2: Link_TSG6_T (K55A/K69A/K76A) (domain or fragment, human)
chain: GVYHREARSGKYKLTYAEAAAVCEFEGGHLATYAQLEAARAIGFHVCAAGWMAKGRVGYPIVKPGPNCGFGKTGIIDYGIRLNRSERWDAYCYNPHAK
notes: Link module of human TSG-6 with three lysines changed to alanine; residues numbered as in the pre-protein
B3: CCL5 (ligand, UniProt P13501 24-91, looked up)
chain: SPYSSDTTPCCFAYIARPLPRAHIKEYFYTSGKCSNPAVVFVTRKNRQVCANPEKKWVREYINSLEMS
notes: chemokine CCL5; source: E. coli, purified
B4: CCL27 (ligand, UniProt Q9Y4X3 25-112, looked up)
chain: FLLPPSTACCTQLYRKPLSDKLLRKVIQVELQEADGDCHLQAFVLHLAQRSICIHPQNPSLSQWFEHQERKLHGTLPKLNFGMLRKMG
notes: chemokine CCL27; source: E. coli, purified
B5: CCL27 K25A (ligand, UniProt Q9Y4X3 25-112, looked up)
chain: B4 chain with K25A
notes: chemokine CCL27 with K25A; also called CCL27 K25A mutant; source: E. coli, purified
B6: CCL7 (ligand)
chain: not shown
notes: chemokine CCL7; source: E. coli, purified
B7: CXCL11 (ligand, UniProt O14625 22-94, looked up)
chain: FPMFKRGRCLCIGPGVKAVKVADIEKASIMYPSNNCDKIEVIITLKENKGQRCLNPKSKQARLIIKKVERKNF
notes: chemokine CXCL11; CXCL11 is not in the methods' list of chemokines made in E. coli
B8: CCL21 (ligand, UniProt O00585 24-134, looked up)
chain: SDGGAQDCCLKYSQRKIPAKVVRSYRKQEPSLGCSIPAILFLPRKRSQAELCADPKELWVQQLMQHLDKTPSPQKPAQGCRKDRGASKTGKKGKGSKGCKRTERSQTPKGP
notes: chemokine CCL21; source: E. coli, purified
B9: Biotinylated CCL21 (ligand, UniProt O00585 24-134, looked up)
chain: B8 chain
modifications: biotin
notes: chemokine CCL21, biotinylated; also called biotinylated chemokine CCL21; source: E. coli, purified

Experiments:
Conditions in all cases: both partners purified
[1] = biological target: T1, Link_TSG6 (recombinant Link module from human TSG-6) (human, UniProt P98066 36-133); test: SPR; Link_TSG6 amine-coupled to a C1 chip (800–1000 RU), chemokine as analyte; BIAcore 3000; 10 mM HEPES, 150 mM NaCl, 0.05% Tween 20, pH 7.4; 40 μl/min; 1:1 Langmuir model; apparent affinities
T1 construct: Link module of human TSG-6 (TNF-stimulated gene/protein 6); residues numbered as in the pre-protein; also called TSG-6 Link module

CCL7 = biological target: B6; test: ELISA; solid phase competition: chemokine (250 nM) coated on MaxiSorp plates, biotinylated heparin (25 ng/well) with Link_TSG6_T (0–1000 nM); 10 mM NaOAc, 150 mM NaCl, 2% Tween 20, pH 6.0, room temperature, 4 h; bound heparin detected
CXCL11 = biological target: B7; test: as above
CCL19 = biological target: B1; test: as above
CCL2 = biological target: T2, CCL2 (UniProt P13500 24-99); test: as above
T2 construct: chemokine CCL2; source: E. coli, purified

[2] = biological target: T1, Link_TSG6 (recombinant Link module from …); test: SPR; Link_TSG6 amine-coupled to a C1 chip (800–1000 RU), chemokine as analyte; BIAcore 3000; 10 mM HEPES, 150 mM NaCl, 0.05% Tween 20, pH 7.4; 40 μl/min; 1:1 Langmuir model; apparent affinities; remark: listed apart in the source
[3] = biological target: T1, Link_TSG6 (recombinant Link module from …); test: plate binding assay on a collagen-coated surface, labeled streptavidin detection; wells coated with type I collagen (100 μg/ml); biotinylated chemokine (10, 50 or 200 nM) alone or pre-incubated 30 min at 37 °C with different molar ratios of Link_TSG6 in cPBS, then 1 h on the surface; streptavidin IRDye 800CW

Chain of CCL7 (P80098 24-99): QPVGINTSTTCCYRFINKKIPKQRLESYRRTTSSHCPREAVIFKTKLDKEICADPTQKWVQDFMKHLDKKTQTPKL
T2 sequence (P13500 24-99): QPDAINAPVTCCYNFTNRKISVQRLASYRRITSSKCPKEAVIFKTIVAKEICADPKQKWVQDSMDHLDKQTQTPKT

B1 showed a Kd [1] of 17.5 nM, a koff [1] of 0.0028 s⁻¹ and a kon [1] of 160000 M⁻¹ s⁻¹.

B2 gave an IC50 (CCL7) of 159 nM, an IC50 (CXCL11) of 168 nM and an IC50 (CCL19) of 55 nM. For the same binder, the IC50 (CCL2) was 84 nM.

B3: binds [2].

B4 gave a Kd [1] of 85.2 nM, a koff [1] of 0.0023 s⁻¹ and a kon [1] of 27000 M⁻¹ s⁻¹.

In the case of B5, the Kd [1] is reported as 753 nM, the koff [1] is reported as 0.0061 s⁻¹ and the kon [1] is reported as 8100 M⁻¹ s⁻¹.

Binder B6 has a Kd [1] of 18.4 nM, a koff [1] of 0.0016 s⁻¹ and a kon [1] of 87000 M⁻¹ s⁻¹.

Binder B7 has a Kd [1] of 5.2 nM, a koff [1] of 0.0013 s⁻¹ and a kon [1] of 250000 M⁻¹ s⁻¹.

In the case of B8, the Kd [1] is reported as 4.8 nM, the koff [1] is reported as 0.0034 s⁻¹ and the kon [1] is reported as 710000 M⁻¹ s⁻¹.

B9: binds [3].
